According to the DeepSol protein solubility set:

Assay: soluble on expression in E. coli; label from the status in PepcDB or PDB records

Row | Sequence | soluble on expression in E. coli
1 | MGSDKIHHHHHHMKFFKSLLIAPAALGLMAPVAVNADTAFSPTTKLKSSVNFTVGSNADSADGDELHSSYEMKWKATTSFTGEDKLVGKFEIGSGKTLAGGIDPQSSKGGGKTPTLTDLYYQFPLAEDLTISIGPKMDGDQGLAGTTSVYGEPVLLAADGYYALAGEGGTGATIAYAGDNGWNASLNMTAADGDDASKGIFGDDTEDYVTAQLGFDGDGFGGTFTYSDSSDTYTAYGIGAYFQPESIPVTVSAYFDSMDPEKGEEDENWVVGVEADAGPGTLGVGVGTQKGTDEKLTYEAWYDYKIADGVKITPMIWTSEDAGVGGEDLSGAALNVKYKF | not soluble
2 | MGSDKIHHHHHHMKFNIKSVKNYRLPMSWQHIQKGTMYCSLINEFFADWFQKVLGDQWLMIGGLSAELELNLPLRHKIILMPEMTKNPTALFPANQNVTEEISLIQADPLQLPFVQQSIHACVLANTLNFTQHSHQLLGEIARVLENDGYLFISLFNPYSPLIFKQNLNHKNQTALPFKQYFTWRILDWIKLLNFEILDQVNLSEKKQQDCFSPLTLIVAQKRTYPFPLYKIKNKIVPYQSFQFMGENTKNAT | not soluble
3 | MGSDKIHHHHHHMKGIEVKQVTKSFDKKMILNGIGMTIEPNKIYGLLGRNGAGKSTLLSLLVNRIAPDTGEIRLDNKVIRDNDEQLSKMFLMSEVDLYPKNLKVKDVFKWTKSFYGGFDEELAQDLCEKFGLQTNIIFNKLSTGYRTIMKLIVALAVPVEYVFLDEPILGLDAGHREIFYNALVETYAENPRTFVISTHLIEEIANLIEHVLVIDHGRLIVDDETEKVLGEAYVVSGPEDKVDEYTQGLNVIGSDKLARIKASYVFGSLDNKPISDLINIDQMDLQTLFVNLTNGGNENE | not soluble
4 | MGSDKIHHHHHHMKGLYIGAAGMMNYMQHIQVHSNNVANAQTPGFKFDQLTSEVISRNKVNYQNGPVARQVGTIDYGVRPAATHINLTAGSSYITNRDRDFFMQDTDPTQGSNFFITAKNGEISLSRGGQFHSDQFGFLRTADGANLLSATGEAIQVGQKTSIRSEANGDLYNAETGQYLGRLGTKFVSANQADSLVKDGEGRLHVNGINTMNLPAGQGIIQNGVIETSNVDLGVEMVQLMDNQRMVQASKNVVNMFDKVYDKEATGLIRQ | not soluble
5 | MGSDKIHHHHHHMKGSTDLESRLPSAGAYGDRFASYFKLAKASVFKTGSLRTGEIAYTETSGYCHKPEPSVPVPPEDAFLVQTQLQDYPNHISWEDGRPGIVGTLRAGHTILRDLQRKPNAIIMGPHHTVHFYIPRATFNTVAEDLEARSISELAYVPAQPIDDDVIRGLIGTVRAAIKAPEETNRLFLDHLMMAAAVHLAQTYGGLKPRSLQHRGGLAPWQARLAIELLEGDLTGQLPLKDVAAACKLSVSYFSKAFCKTTGLAPHQWLLYRRVERAKSAMINEKTTLAEVALSCGFSDQSHFTRVFVRLVGTSPATWRRARNL | not soluble
6 | MGSDKIHHHHHHMKHESTKIPLVIFMHIPKTGGITLRNILDQQYRSEHILRLPQKNKLDNLLQKKGANIKKLQCVYGHHRFGVHEYFQQPFTYITMLRHPVERIISTYYFILQNERNRMHQKVKPLTFEQFVQSTDPDLQVPLTNHQTRYLSGERKPNLNKALQHMDTHFSVVGITELYNESLFIMKKKLGWDHISYQKKNVTYYRYRQTDIGLDTIEIIKRKNPLDLHLYETAKEKLQEHIKRLDSGARKELQQFLQDQNGFGPHG | not soluble
7 | MGSDKIHHHHHHMKHFKYGAIALTLISGLAACGGSGSDEPEVVVPETGFSFDADALIVNLSDEVIVKGYSTLADRGEALLQATQTLVATPTQANLEAAQSAWKAARQPWEQGESHIFGPVDSLGIDPHLDSWPLNTTDLKTVLINSSGFDAETIKGWNDDVQGFHTMEFLLFGDGMDDNVKQIDELTANERDYLMGLAEVFRDYTKQLADAWLVSHDGQSGKAYGELLKSPGVDGNTFYSSQVGVLEELIKGMIGIVDEVGNGKIADPFGGSLASADTSKVESQYSWNSLTDFSDNIIGVRNVYQGEFTGEADKQGIIDFVRAADSELASRIAAEIDAAILQIHAIEGTDKMPFRQAIKDEAGRARIQKAVDALATLQASLENQVLPLLKEWKV | not soluble
8 | MGSDKIHHHHHHMKIAQIAPLFEAVPPRLYGGTERVVASICDALVKAGHQVDLYASGDSQSKARLIPCRERALRLDPAPLKSDIAAHYTLLDEVRRHAGEYDILHFHTDMLHFPFFEPIASKTLTTLHGRLDMADLPNAFKRWRQFPLVSISNDQRRALPGANWAGTVYHGLDPALYRFNPNPQGGYLAFLGRISPEKRPDRAIAIARKAGIPLKIAAKVDAADLNYYNDVIKPLLNQADVEFIGEITDAQKNDFLGNALALLFPVDWPEPFGLVMIEAMACGTPVIAWRCGSVPEIIEPGRNGFIVTDEHQAAAACHAATTLDRAKVREAFDMRFTSDVMAEHYLKLYKRLAASANDDNLMESQVG | not soluble
9 | MGSDKIHHHHHHMKIAVVGGTFWDIFIFGENPHSSTIRESPGGSGLNVAYGLFLLGHTVDFYSNIGDDWRGKQIVELLEKASFDTSHMSTIQGGKTGIFIAHNDKPLAVDPGVNRKEMKLPSLSEYDLVFVTGEIPEKTIRKICENTKNVILDVGPGARFDTSDLNALVIGNERECSFRKCDVVKMGSKGARWGEVYVPGNGISYPHSIGLGDLFDIVFVHHLPLGKSKKEILEEAVKCSQILGQKENVTPFERISFLEPLSTKDDTLECPDESKDASHHGG | not soluble
10 | MGSDKIHHHHHHMKIDSEHLEILAVIVEKGGLTEGAEALGKSQPSVSRTMALLEERIGTPLFEAGRRPLRPTELGNQLARLGAKIRTQNLEASRLVQRYRQGQAGRLRLGGTPIFFDGVVAGMVAEFQNRHSDVQITQTYGYFEDLSAGLRSGALDLAILPMHANMIPADMQFTPLLAGRNVIVGSATHPLARRGAITLADIEPYSWIAPPPDSPLFRDLQRSLKSIGLDDFKVSFSGGTLASIFSVVLGSDSLTVLPYSVVFTHQRVIPLQALPLRIEHPDRQLGLLTATERMPPPALERFVAFVTEKFKHLSTRMEHEQQVTRRRG | not soluble
11 | MGSDKIHHHHHHMKIFNAMFSKVNGGLEQVFLNYIPALSSQGNLVIPIIHPKAEIRNSCPQDHLITVHNFNQHDFFAIHRLKKLIKIHQPDCIITHSYRAAYLFKKTRTKVPKIAVCHVKGHYDFGTDAIIALTEQMRRDIINSGIEERRVFTIPNLIHIPDGLQYREPKNNQIPIIGVCARFAAIKGVDVFINALAELKKRGVAFQAKIAGDGKEKEQYIELIRHHGLEHEITLLGWIEDKESFYKSIDIFCLPSREESFGLVVLESMMHSLPMVLTRLSGPLEIAGNSGCALFVPPEDPVSMADGLERLLRDKDLSKQLALKAFQRVQHYSSTKVAPMLHKVLEKACEINQQ | not soluble
12 | MGSDKIHHHHHHMKILIVDDEYRKVEEIFNVLADAGISCAGVKHETTAQAARILLRRQDYDLLIIDLHLPAAIGGKPDNEGGITFLDMIRLDEKVKLPASVLFITGREELIESAYTKVIERGAILCQYHSDSDEWKKILIGRAKYDSQRLARDEQVDVVIVTALRNPELDAVLNLPYQWIQKRIKDDPLTYHYGKIPRIDSNISVVAVSPNRKGMPSSAAVASKLALMFKPKILLMVGICAGIRDKCSLGDIIVADPTWDWGSGKHGLDSNGSPVFHAAPRQVPLNSALSQVASDLANDESVMNGIRKGWSEEVPGGKLKVHIGPMASGASVIADDRSARLIAIQQHRELIAIEMEAYAVMAAAEYTSIPNLTAMIIKSVCDFADAEKNDTWQKYASYTSAAFADQLFRNSNISV | not soluble
13 | MGSDKIHHHHHHMKILIVGGSGGIGSAMVKDALARFQDAEVHATFCTDSTHTGCSHFSGVKWHRLDVTDEAGIKALSESFESLDWLINCVGMLHSGSKGPEKSLSQFDGEFFLHNMTLNTLPTLLLAKHFSARLKSSVSPRLAVLSARVGSISDNRLGGWYSYRASKAALNMLIKTLAVEWQRSLKGGVVLALHPGTTKTRLSEPFQANVPGDKLFLPERVAADLMDIIARAEVCDSGSFLAYDGATIPW | not soluble
14 | MGSDKIHHHHHHMKINTSMLWEDKAKSEVTYTTYLIEKTPDIKNKNPRPAVIICGGGGFFKVTDREKEPVALYFLNKGFQAITLDYTVGKGSGYPKPLYDLAKMLLIVRENAQNWNIDTEKVIFIGFSAGATHSASLANSWNEPFLQKYFDYPGETLKPSLVILSYPLLDFNYQYEQVSVDPDNQMPTKLSPMPKIDFLTGALKTVVGKELTTENLKEYSPIEHISTATVPTFIWGMQDDDCIYNNALLEYAKRLKDNGILYELHMFALGEHGLSVINSNTQAKFSDYEELGIWKKLCIQFINRVLHLK | not soluble
